Source: publication PMC10936184

Molecular target: MipA-His6 (Pseudomonas aeruginosa)
Test: nano-DSF; isothermal analysis with FoldAffinity: MipA-His6 (5 µM) incubated for 2 h at room temperature with PMB or PME from 76 nM up to 2.5 mM; one site model; fits at 51°C, 52°C and 53°C

With polymyxin B (peptide) the Kd was 8.4 to 10 µM.
Work on polymyxin E (peptide) yielded a Kd of 2.8 to 3.4 µM.
